Measured values taken from paper PMC12811900 (Nature microbiology, 2025).

Molecular target: the molecule itself
Test: cryo-EM structure

B1: Sth enolase, untagged, expressed in E. coli (enzyme, Streptococcus thermophilus DGCC7710)
chain: MSIITDVYAREVLDSRGNPTLEVEVYTESGAFGRGMVPSGASTGEHEAVELRDGDKARYGGLGTQKAVDNVNNVIAEHIIGFDVRDQQGIDRAMIALDGTPNKGKLGANAILGVSIAVARAAADYLEVPLYSYLGGFNTKVLPTPMMNIINGGSHSDAPIAFQEFMIVPAGAPTFKEALRWGAEIFHALKKILKERGLETAVGDEGGFAPRFNGTEDGVETIIKAIEAAGYVPGKDVFIGLDCASSEFYDAERKVYDYTKFEGEGAAVRTAAEQIDYLEELVNKYPIITIEDGMDENDWDGWKALTERLGGKVQLVGDDFFVTNTAYLEKGIAEHAANSILIKVNQIGTLTETFDAIEMAKEAGYTAVVSHRSGETEDSTIADIAVATNAGQIKTGSLSRTDRIAKYNQLLRIEDQLGEVAEYRGLKSFYNLKK
- stoichiometry N: 8
